Here are results for two proteins from patent US6627193.

The data set has as its target purified human protein C (PC), P04070.

Sequence of purified human protein C (PC), P04070 (P04070 whole entry, looked up): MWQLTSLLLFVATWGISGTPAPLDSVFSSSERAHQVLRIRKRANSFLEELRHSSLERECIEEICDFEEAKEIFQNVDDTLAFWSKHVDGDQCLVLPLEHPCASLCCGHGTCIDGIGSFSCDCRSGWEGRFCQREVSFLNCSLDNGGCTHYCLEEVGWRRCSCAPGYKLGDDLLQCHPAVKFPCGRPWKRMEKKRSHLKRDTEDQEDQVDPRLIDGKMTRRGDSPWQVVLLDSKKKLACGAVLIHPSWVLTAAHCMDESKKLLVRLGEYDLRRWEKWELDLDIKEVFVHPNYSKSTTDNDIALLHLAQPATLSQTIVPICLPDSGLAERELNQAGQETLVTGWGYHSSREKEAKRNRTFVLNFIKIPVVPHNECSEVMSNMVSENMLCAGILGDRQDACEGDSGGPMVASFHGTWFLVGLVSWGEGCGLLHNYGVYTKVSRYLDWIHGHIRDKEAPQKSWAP

B1: TLCK-inactivated RgpB (protein)
chain: YTPVEEKENGRMIVIVAKKYEGDIKDFVDWKNQRGLRTEVKVAEDIASPVTANAIQQFVKQEYEKEGNDLTYVLLVGDHKDIPAKITPGIKSDQVYGQIVGNDHYNEVFIGRFSCESKEDLKTQIDRTIHYERNITTEDKWLGQALCIASAEGGPSADNGESDIQHENVIANLLTQYGYTKIIKCYDPGVTPKNIIDAFNGGISLVNYTGHGSETAWGTSHFGTTHVKQLTNSNQLPFIFDVACVNGDFLFSMPCFAEALMRAQKDGKPTGTVAIIASTIDQYWAPPMRGQDEMNEILCEKHPNNIKRTFGGVTMNGMFAMVEKYKKDGENMLDTWTVFGDPSLLVRTLVPTEMQVTAPANISASAQTFEVACDYNGAIATLSDDGDMVGTAIVKDGKAIIKLNESIADETNLTLTVVGYNKVTVIKDVKVEGTSIADVANDKPYTVAVSGKTITVESPAAGLTIFDMNGRRVATAKNRMVFEAQNGVYAVRIATEGKTYTEKVIVK
As for B1, the “APC activity generated from purified PC” value is given as “TLCK-treated enzymes did not induce PC activation”.

B2: RgpB (50 kDa gingipain R, RGP-2) from Porphyromonas gingivalis HG66 (protein)
chain: YTPVEEKENGRMIVIVAKKYEGDIKDFVDWKNQRGLRTEVKVAEDIASPVTANAIQQFVKQEYEKEGNDLTYVLLVGDHKDIPAKITPGIKSDQVYGQIVGNDHYNEVFIGRFSCESKEDLKTQIDRTIHYERNITTEDKWLGQALCIASAEGGPSADNGESDIQHENVIANLLTQYGYTKIIKCYDPGVTPKNIIDAFNGGISLVNYTGHGSETAWGTSHFGTTHVKQLTNSNQLPFIFDVACVNGDFLFSMPCFAEALMRAQKDGKPTGTVAIIASTIDQYWAPPMRGQDEMNEILCEKHPNNIKRTFGGVTMNGMFAMVEKYKKDGENMLDTWTVFGDPSLLVRTLVPTEMQVTAPANISASAQTFEVACDYNGAIATLSDDGDMVGTAIVKDGKAIIKLNESIADETNLTLTVVGYNKVTVIKDVKVEGTSIADVANDKPYTVAVSGKTITVESPAAGLTIFDMNGRRVATAKNRMVFEAQNGVYAVRIATEGKTYTEKVIVK
In the case of B2, the “APC activity generated from purified PC (amidolytic assay with Boc-Leu-Ser-Thr-Arg-MCA)” value was “Both proteinases generated APC linearly in a dose- and incubation time-dependent manner”; the “APC activity generated in human plasma” value is “with RgpB negligible APC was detected”; the Km (activation of human protein C) was determined as 3.8 µM; the kcat (activation of human protein C) stood at 0.015 s⁻¹. For the same protein, the kcat/Km (activation of human protein C) came out at 3900 M⁻¹ s⁻¹.
